The source of these data is patent publication US20240270825A1 (CENTIVAX, published 2024).

The target in experiment [1] is T1, MERS Receptor Binding Domain (RBD) protein (Middle East Respiratory Syndrome (MERS) …, UniProt K9N5Q8 367-606).
T1 construct: also called Middle East Respiratory Syndrome (MERS) virus
T1 sequence: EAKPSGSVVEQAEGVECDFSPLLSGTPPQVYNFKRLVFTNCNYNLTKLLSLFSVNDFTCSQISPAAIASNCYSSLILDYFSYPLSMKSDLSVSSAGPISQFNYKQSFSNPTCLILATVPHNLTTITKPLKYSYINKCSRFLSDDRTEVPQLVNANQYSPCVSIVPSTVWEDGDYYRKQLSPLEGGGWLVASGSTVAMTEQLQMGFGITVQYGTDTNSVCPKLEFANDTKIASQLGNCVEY
Description: SPR Carterra LSA, scFv captured via anti-V5.

Experiment [2] deals with T2, SARS-CoV-1 Receptor Binding Domain (RBD) protein (SARS-CoV-1, UniProt P59594 306-527).
T2 construct: also called SARS1
As to the kind of experiment: SPR Carterra LSA, scFv captured via anti-V5.

B1: COVID19_P09_B10 (scFv, V domains shown)
VH: QVQLVQSGAEVKKPGSSVKVSCKASGYSFTDYHIHWVRQAPGQGLEWMAMIVPRGGSTTYAQKFQGRVTITADESTSTAYMELSSLRSEDTAVYYCAGGSGISTPMDVWGQGTLVTVSS
VL: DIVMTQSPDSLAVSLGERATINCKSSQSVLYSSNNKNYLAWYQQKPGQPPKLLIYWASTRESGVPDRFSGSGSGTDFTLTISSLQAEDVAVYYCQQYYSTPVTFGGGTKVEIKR
For B1, the binding result in experiment [1] and in experiment [2] was “no binding (tested: 300 nM)” throughout.

B2: COVID19_P22_F04 (scFv, V domains shown)
VH: QVQLVQSGAEVKKPGSSVKVSCKASGGGFITYWIGWVRQAPGQGLEWMGIIYPGDGEARYSQKFQGRVTITADESTSTAYMELSSLRSEDTAVYYCAGGSGISTPMDVWGQGTLVTVSS
VL: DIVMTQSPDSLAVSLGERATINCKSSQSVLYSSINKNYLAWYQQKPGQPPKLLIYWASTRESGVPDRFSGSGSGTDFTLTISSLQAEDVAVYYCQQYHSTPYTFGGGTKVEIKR
B2: the binding result in experiment [1] and in experiment [2] was “no binding (tested: 300 nM)” in each case.

B3: COVID19_P21_A08 (scFv, V domains shown)
VH: QVQLVQSGAEVKKPGSSVKVSCKASGGTFITYWIGWVRQAPGQGLEWMGWINPNSGGTNYAQKFQGRVTITADESTSTAYMELSSLRSEDTAVYYCAGGSGISTPMDVWGQGTLVTVSS
VL: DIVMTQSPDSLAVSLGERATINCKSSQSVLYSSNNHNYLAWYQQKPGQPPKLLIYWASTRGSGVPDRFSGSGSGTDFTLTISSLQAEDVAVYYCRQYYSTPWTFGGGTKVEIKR
In the case of B3, the binding result in experiment [1] and in experiment [2] was “no binding (tested: 300 nM)” each time.

B4: COVID19_P09_C05 (scFv, V domains shown)
VH: QVQLVQSGAEVKKPGSSVKVSCKASGYSFSDYYIHWVRQAPGQGLEWMGWIDPNSGGTNYAQKFQGRVTITADESTSTAYMELSSLRSEDTAVYYCAGGSGISTPMDVWGQGTLVTVSS
VL: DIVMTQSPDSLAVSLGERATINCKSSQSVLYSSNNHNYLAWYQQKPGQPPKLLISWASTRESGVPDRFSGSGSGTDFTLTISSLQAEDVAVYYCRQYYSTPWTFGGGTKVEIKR
Consider B4, for which the binding result in experiment [1] and in experiment [2] was “no binding (tested: 300 nM)” each time.

B5: COVID19_P22_F11 (scFv, V domains shown)
VH: QVQLVQSGAEVKKPGSSVKVSCKASGGGFITYWISWVRQAPGQGLEWMGIIYPGDGEARYSQKFQGRVTITADESTSTAYMELSSLRSEDTAVYYCAGGSGIIQPMDVWGQGTLVTVSS
VL: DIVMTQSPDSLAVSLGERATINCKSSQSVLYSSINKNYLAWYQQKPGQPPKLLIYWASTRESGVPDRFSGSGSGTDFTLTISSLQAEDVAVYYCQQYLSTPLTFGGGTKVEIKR
On to B5, for which the binding result in experiment [1] and in experiment [2] was “no binding (tested: 300 nM)” throughout.

B6: COVID19_P22_H10 (scFv, V domains shown)
VH: QVQLVQSGAEVKKPGSSVKVSCKASGGGFSTYWIGWVRQAPGQGLEWVGWINPNSGATKYAQKFQGRVTITADESTSTAYMELSSLRSEDTAVYYCAGGSGISTPMDVWGQGTLVTVSS
VL: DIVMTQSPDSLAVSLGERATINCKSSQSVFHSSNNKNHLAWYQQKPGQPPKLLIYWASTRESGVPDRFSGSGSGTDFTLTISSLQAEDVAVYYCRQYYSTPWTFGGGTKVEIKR
Consider B6, for which the binding result in experiment [1] and in experiment [2] was “no binding (tested: 300 nM)” throughout.

B7: COVID19_P22_E06 (scFv, V domains shown)
VH: QVQLVQSGAEVKKPGSSVKVSCKASGGGFITYWIGWVRQAPGQGLEWMGIIYPGDSETRYSQKFQGRVTITADESTSTAYMELSSLRSEDTAVYYCAGGSGISSDMDVWGQGTLVTVSS
VL: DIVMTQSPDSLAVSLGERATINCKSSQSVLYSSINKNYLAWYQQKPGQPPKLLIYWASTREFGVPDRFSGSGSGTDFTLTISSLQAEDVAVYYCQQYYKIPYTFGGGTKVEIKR
B7: the binding result in experiment [1] and in experiment [2] was “no binding (tested: 300 nM)” throughout.

B8: COVID19_P21_B01 (scFv, V domains shown)
VH: QVQLVQSGAEVKKPGSSVKVSCKASGYTFSTYWIGWVRQAPGQGLEWMGWIDPNSGGTNYAQKFQGRVTITADESTSTAYMELSSLRSEDTAVYYCAGGSGISTPMDVWGQGTLVTVSS
VL: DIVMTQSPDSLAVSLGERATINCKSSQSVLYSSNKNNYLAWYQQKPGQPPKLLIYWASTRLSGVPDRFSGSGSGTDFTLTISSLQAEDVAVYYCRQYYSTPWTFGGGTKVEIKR
Turning to B8, the binding result in experiment [1] and in experiment [2] was “no binding (tested: 300 nM)” throughout.

B9: COVID19_P21_H01 (scFv, V domains shown)
VH: QVQLVQSGAEVKKPGSSVKVSCKASGYGFSTYWIGWVRQAPGQGLEWMGWINPNSGGTNYAQKFQGRVTITADESTSTAYMELSSLRSEDTAVYYCAGGSGISTPMDVWGQGTLVTVSS
VL: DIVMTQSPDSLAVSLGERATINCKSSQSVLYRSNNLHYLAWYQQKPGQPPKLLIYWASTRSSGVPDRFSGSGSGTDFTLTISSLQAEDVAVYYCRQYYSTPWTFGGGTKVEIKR
As to B9, the binding result in experiment [1] and in experiment [2] was “no binding (tested: 300 nM)” in each case.

B10: COVID19_P10_C05 (scFv, V domains shown)
VH: QVQLVQSGAEVKKPGSSVKVSCKASGGTFITYWIGWVRQAPGQGLEWMGIIYPGDGEARYSQKFQGRVTITADESTSTAYMELSSLRSEDTAVYYCAGSGGISTPMDVWGQGTLVTVSS
VL: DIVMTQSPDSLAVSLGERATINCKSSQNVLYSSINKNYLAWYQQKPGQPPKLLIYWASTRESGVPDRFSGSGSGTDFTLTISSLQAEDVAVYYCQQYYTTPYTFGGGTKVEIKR
As for B10, the binding result in experiment [1] and in experiment [2] was “no binding (tested: 300 nM)” in each case.

B11: COVID19_P22_B04 (scFv, V domains shown)
VH: QVQLVQSGAEVKKPGSSVKVSCKASGYGFITYWIGWVRQAPGQGLEWMGIIYPGDSETRYAQKFQGRVTITADESTSTAYMELSSLRSEDTAVYYCAGGEGISTPMDVWGQGTLVTVSS
VL: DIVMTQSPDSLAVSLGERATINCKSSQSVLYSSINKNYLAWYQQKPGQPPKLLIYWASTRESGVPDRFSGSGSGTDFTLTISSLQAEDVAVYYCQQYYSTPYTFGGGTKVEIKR
On to B11, for which the binding result in experiment [1] and in experiment [2] was “no binding (tested: 300 nM)” in each case.

B12: COVID19_P10_G03 (scFv, V domains shown)
VH: QVQLVQSGAEVKKPGSSVKVSCKASGGTFSNSSINWVRQAPGQGLEWMGRINPNSGGTNYAQKFQGRVTITADESTSTAYMELSSLRSEDTAVYYCAGGSGISTPMDVWGQGTLVTVSS
VL: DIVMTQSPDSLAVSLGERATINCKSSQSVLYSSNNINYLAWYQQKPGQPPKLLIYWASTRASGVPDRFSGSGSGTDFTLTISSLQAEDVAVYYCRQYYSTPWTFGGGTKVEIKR
Regarding B12, the binding result in experiment [1] and in experiment [2] was “no binding (tested: 300 nM)” in each case.

B13: COVID19_P09_D06 (scFv, V domains shown)
VH: QVQLVQSGAEVKKPGSSVKVSCKASGYGFITYWIGWVRQAPGQGLEWMGIIYPGDSETRYAQKFQGRVTITADESTSTAYMELSSLRSEDTAVYYCAGGSGIYVPMDVWGQGTLVTVSS
VL: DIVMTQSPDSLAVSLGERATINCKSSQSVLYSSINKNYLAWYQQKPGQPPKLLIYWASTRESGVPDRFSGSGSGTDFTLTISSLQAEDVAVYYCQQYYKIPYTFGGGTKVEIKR
On to B13, for which the binding result in experiment [1] and in experiment [2] was “no binding (tested: 300 nM)” in each case.

B14: COVID19_P09_H09 (scFv, V domains shown)
VH: QVQLVQSGAEVKKPGSSVKVSCKASGGTFITYWIYWVRQAPGQGLEWMGIIYPGDGEARYSQKFYGRVTITADESTSTAYMELSSLRSEDTAVYYCAGSGGISTPMDVWGQGTLVTVSS
VL: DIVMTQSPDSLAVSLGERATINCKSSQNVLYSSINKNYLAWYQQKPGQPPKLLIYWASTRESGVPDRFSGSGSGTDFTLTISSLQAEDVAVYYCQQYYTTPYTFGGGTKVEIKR
For the molecule B14, the binding result in experiment [1] and in experiment [2] was “no binding (tested: 300 nM)” in each case.

B15: COVID19_P10_D08 (scFv, V domains shown)
VH: QVQLVQSGAEVKKPGSSVKVSCKASGGTFNSHAISWVRQAPGQGLEWMGWINPNSGATNYAQKFQGRVTITADESTSTAYMELSSLRSEDTAVYYCAGGSGISTPVGVWGQGTLVTVSS
VL: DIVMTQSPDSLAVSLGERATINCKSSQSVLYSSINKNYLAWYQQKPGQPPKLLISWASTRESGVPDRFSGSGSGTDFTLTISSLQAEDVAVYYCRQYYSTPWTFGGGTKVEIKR
As to B15, the binding result in experiment [1] and in experiment [2] was “no binding (tested: 300 nM)” throughout.

B16: COVID19_P22_G12 (scFv, V domains shown)
VH: QVQLVQSGAEVKKPGSSVKVSCKASGGGFITYWIGWVRQAPGQGLEWMGIIYPGDSETRYSQKFQGRVTITADESTSTAYMELSSLRSEDTAVYYCAGGSGISTPMDVWGQGTLVTVSS
VL: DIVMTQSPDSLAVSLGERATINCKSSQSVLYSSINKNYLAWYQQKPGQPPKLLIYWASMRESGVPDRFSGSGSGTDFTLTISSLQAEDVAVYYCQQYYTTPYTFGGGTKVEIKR
As for B16, the binding result in experiment [1] and in experiment [2] was “no binding (tested: 300 nM)” in each case.

B17: COVID19_P22_C09 (scFv, V domains shown)
VH: QVQLVQSGAEVKKPGSSVKVSCKASGYNFTDYHIQWVRQAPGQGLEWVGMIIPRHGGTAYAQRFQGRVTITADESTSTAYMELSSLRSEDTAVYYCAGGSGLTTPMDVWGQGTLVTVSS
VL: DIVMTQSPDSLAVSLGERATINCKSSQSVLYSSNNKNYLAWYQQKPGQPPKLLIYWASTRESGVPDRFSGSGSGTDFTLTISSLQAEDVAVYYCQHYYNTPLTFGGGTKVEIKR
For the molecule B17, the binding result in experiment [1] and in experiment [2] was “no binding (tested: 300 nM)” each time.

B18: COVID19_P10_B10 (scFv, V domains shown)
VH: QVQLVQSGAEVKKPGSSVKVSCKASGYSFSDYHVHWVRQAPGQGLEWVGMIIPRHGGTAYAQKFQGRVTITADESTSTAYMELSSLRSEDTAVYYCAGGSGISTPMDVWGQGTLVTVSS
VL: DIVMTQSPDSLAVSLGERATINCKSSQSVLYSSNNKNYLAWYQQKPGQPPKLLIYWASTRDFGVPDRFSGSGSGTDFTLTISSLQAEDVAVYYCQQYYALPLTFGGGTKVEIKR
Turning to B18, the binding result in experiment [1] and in experiment [2] was “no binding (tested: 300 nM)” throughout.

B19: COVID19_P09_B09 (scFv, V domains shown)
VH: QVQLVQSGAEVKKPGSSVKVSCKASGYRFTDYHLHWVRQAPGQGLEWMGGIVPFSGTTNFAQKFQGRVTITADESTSTAYMELSSLRSEDTAVYYCAGGSGETTPMDVWGQGTLVTVSS
VL: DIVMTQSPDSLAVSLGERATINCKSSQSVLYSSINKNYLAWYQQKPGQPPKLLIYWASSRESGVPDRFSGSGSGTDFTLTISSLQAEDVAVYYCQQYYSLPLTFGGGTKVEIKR
In the case of B19, the binding result in experiment [1] and in experiment [2] was “no binding (tested: 300 nM)” in each case.

B20: COVID19_P21_H03 (scFv, V domains shown)
VH: QVQLVQSGAEVKKPGSSVKVSCKASGYTFTNYGINWVRQAPGQGLEWMGWMNPYSGNTGYAQKFQGRVTITADESTSTAYMELSSLRSEDTAVYYCAVLSGISTPMDVWGQGTLVTVSS
VL: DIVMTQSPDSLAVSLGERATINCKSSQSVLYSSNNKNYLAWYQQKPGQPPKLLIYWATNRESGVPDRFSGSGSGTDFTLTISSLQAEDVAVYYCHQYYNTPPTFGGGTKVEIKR
Regarding B20, the binding result in experiment [1] and in experiment [2] was “no binding (tested: 300 nM)” each time.

B21: COVID19_P21_B02 (scFv, V domains shown)
VH: QVQLVQSGAEVKKPGSSVKVSCKASGYTFTNYGINWVRQAPGQGLEWMGWMNPNSGNTGYAQKFQGRVTITADESTSTAYMELSSLRSEDTAVYYCAAVSGISTPMDVWGQGTLVTVSS
VL: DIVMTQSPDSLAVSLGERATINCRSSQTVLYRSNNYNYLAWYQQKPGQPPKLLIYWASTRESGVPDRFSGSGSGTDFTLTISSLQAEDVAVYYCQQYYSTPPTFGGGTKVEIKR
On to B21, for which the binding result in experiment [1] and in experiment [2] was “no binding (tested: 300 nM)” throughout.

B22: COVID19_P09_G12 (scFv, V domains shown)
VH: QVQLVQSGAEVKKPGSSVKVSCKASGYPFTNYGISWVRQAPGQGLEWMGWMNPNSGNTGYAQKFQGRVTITADESTSTAYMELSSLRSEDTAVYYCATLSGISTPMDVWGQGTLVTVSS
VL: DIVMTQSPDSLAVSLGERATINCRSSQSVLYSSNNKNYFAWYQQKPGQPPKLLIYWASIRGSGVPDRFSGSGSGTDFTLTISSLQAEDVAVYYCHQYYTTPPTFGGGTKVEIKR
Take B22: the binding result in experiment [1] and in experiment [2] was “no binding (tested: 300 nM)” each time.

B23: COVID19_P21_E04 (scFv, V domains shown)
VH: QVQLVQSGAEVKKPGSSVKVSCKASGYTFTNYGINWMRQAPGQGLEWMGWMNPNSGNTGYAQKFQGRVTITADESTSTAYMELSSLRSEDTAVYYCAGGSGISTPMDVWGQGTLVTVSS
VL: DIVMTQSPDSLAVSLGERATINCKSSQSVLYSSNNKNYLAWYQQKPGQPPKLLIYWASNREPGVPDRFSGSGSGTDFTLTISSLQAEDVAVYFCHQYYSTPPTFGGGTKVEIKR
With B23, the binding result in experiment [1] and in experiment [2] was “no binding (tested: 300 nM)” throughout.
